Experimental data published in paper doi:10.1101/308353.

Molecular target: GFP-βRat CaMKII holoenzyme (rat) (UniProt P08413)
Test: single molecule TIRF microscopy

UniProt P08413, sequence (P08413 whole entry): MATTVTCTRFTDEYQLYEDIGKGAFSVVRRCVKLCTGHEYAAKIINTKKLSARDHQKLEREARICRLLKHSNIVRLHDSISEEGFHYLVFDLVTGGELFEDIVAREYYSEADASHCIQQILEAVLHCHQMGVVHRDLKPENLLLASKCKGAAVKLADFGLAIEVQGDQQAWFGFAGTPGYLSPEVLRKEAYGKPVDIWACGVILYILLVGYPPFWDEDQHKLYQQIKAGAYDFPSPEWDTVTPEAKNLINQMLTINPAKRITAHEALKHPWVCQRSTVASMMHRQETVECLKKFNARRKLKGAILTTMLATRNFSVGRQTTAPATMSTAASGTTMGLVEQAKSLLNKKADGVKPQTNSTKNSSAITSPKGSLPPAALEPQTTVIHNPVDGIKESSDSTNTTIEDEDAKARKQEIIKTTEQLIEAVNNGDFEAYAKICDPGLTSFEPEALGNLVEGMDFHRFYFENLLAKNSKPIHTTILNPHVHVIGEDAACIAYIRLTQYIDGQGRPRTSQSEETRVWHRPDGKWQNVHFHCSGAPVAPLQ

Pearson's correlation of co-localization: 0.33
Substance: Cy3 conjugated G-actin (from UniProt P68135 1-377) (natural protein)
